In article PMC11360561:

Legend:
[1] = target: Human bufavirus 1 (BuV1) VP2, assembled as virus-like particles (human bufavirus 1); experiment: cryo-EM structure; purified BuV1 VP2 VLPs dialyzed to pH 4.0 in universal buffer (20 mM HEPES, 20 mM MES, 20 mM sodium acetate, 150 mM NaCl); icosahedral reconstruction
[2] = target: Human bufavirus 1 (BuV1) VP2, assembled as virus-like particles (human bufavirus 1); experiment: cryo-EM structure; purified BuV1 VP2 VLPs dialyzed to pH 7.4 in universal buffer (20 mM HEPES, 20 mM MES, 20 mM sodium acetate, 150 mM NaCl); icosahedral reconstruction
[3] = target: Human bufavirus 1 (BuV1) VP2, assembled as virus-like particles (human bufavirus 1); experiment: cryo-EM structure; purified BuV1 VP2 VLPs dialyzed to pH 2.6 in 50 mM glycine HCl, 150 mM NaCl; icosahedral reconstruction; full and half (broken) capsids seen in micrographs
[4] = target: Human bufavirus 1 (BuV1) VP2, assembled as virus-like particles (human bufavirus 1); experiment: cryo-EM structure; purified BuV1 VP2 VLPs co-incubated with 6SLN (or 3SLN) glycan in 10-fold molar excess of the potential binding sites; icosahedral reconstruction, 60-mer model

Measured: stoichiometry N

Human bufavirus 1 (BuV1) VP2, assembled as virus-like particles (natural protein)
60: all assays above
